Consider 2 proteins from paper PMC5548637 (International journal of biological macromolecules, 2017).

The data set deals with the molecule itself. As to the kind of experiment: AUC.

B1: TBC1D4 RabGAP-CTR1 (TBC1D4 865-1299) with His6-tag (domain or fragment, human, UniProt O60343 865-1298, looked up)
chain: ASRDELQSRKVKLDYEEVGACQKEVLITWDKKLLNCRAKIRCDMEDIHTLLKEGVPKSRRGEIWQFLALQYRLRHRLPNKQQPPDISYKELLKQLTAQQHAILVDLGRTFPTHPYFSVQLGPGQLSLFNLLKAYSLLDKEVGYCQGISFVAGVLLLHMSEEQAFEMLKFLMYDLGFRKQYRPDMMSLQIQMYQLSRLLHDYHRDLYNHLEENEISPSLYAAPWFLTLFASQFSLGFVARVFDIIFLQGTEVIFKVALSLLSSQETLIMECESFENIVEFLKNTLPDMNTSEMEKIITQVFEMDISKQLHAYEVEYHVLQDELQESSYSCEDSETLEKLERANSQLKRQNMDLLEKLQVAHTKIQALESNLENLLTRETKMKSLIRTLEQEKMAYQKTVEQLRKLLPADALVNCDLLLRDLNCNPNNKAKIGNKP
A word on the stoichiometry N: it is the number of molecules, sites or subunits per partner or assembly. For the protein B1, the “stoichiometry N” value is 2.

B2: TBC1D4 CTR (TBC1D4 1192-1299) with His6-tag (domain or fragment, human, UniProt O60343 1192-1298, looked up)
chain: SCEDSETLEKLERANSQLKRQNMDLLEKLQVAHTKIQALESNLENLLTRETKMKSLIRTLEQEKMAYQKTVEQLRKLLPADALVNCDLLLRDLNCNPNNKAKIGNKP
With B2, the “stoichiometry N” value was determined as 2.
